The text below walks through data of the nanobody polyreactivity screen of Harvey et al. (2022).

The series in a line: yeast display, Sf9 membrane polyspecificity reagent, FACS + sequencing; frameworks hold sequencing errors. Put shortly: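 Nanobodies from a synthetic yeast display library (Saccharomyces cerevisiae BJ5465), induced 36–48 hours with galactose, were stained 1 hour at 4 °C with 10% biotinylated, detergent-solubilized Sf9 membrane reagent, enriched on streptavidin microbeads, then FACS-sorted. Anti-HA (expression) and streptavidin (reagent binding) fluorescence set low and high (top ~1%) gates. Polyreactivity labels come from the gate of origin. Genes were colony-PCR amplified, MiSeq 2 × 250 sequenced and filtered by CDR length.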
Turning to “QVQIVESGRGLVQAGGSLRLSCAASGSIFKKYAMGWYRQAPGKERELVAAISSRGGRTYYADSVKGRFTISRDNAKNTVYLQMNSLKPEDTAVYYCNTDISQPGAYDYWGQGTQVTVSS”, the “polyreactivity (PSR sort gate)” value was “high polyreactivity”. As to “QVQIVESWGGLVQAGGSLRLSCAASGSTIYTYPMGWYRQAPGKERELFAAISYRGGSTYYADSVKVRYSISRDNAKNTVYLQMKSLKPEDTAVYYCNVDGVVVGTKRGGYDYWGQGTQVTVSS”, the “polyreactivity (PSR sort gate)” value is on record as “low polyreactivity”. Turning to “QVQLAESGACLVQAGGRLRLSCAASGRIFSFYAMGWYRQAPGKERELVITSGGDTNYADSVKGRFTISRDNAKNSVYLQMNSLKPEDTAVYYCNAEGDRSQPYNFDYWGQGTQVTVSS”, the “polyreactivity (PSR sort gate)” value is recorded as “low polyreactivity”. As for “QVQLAESGGGLVQAGGSLRLSCAASGLTFNAYAMGWYRQAPGKERELVADITTSDGSTFYADSVKGRFTISRDNAKNTVYLQMNRLKPEDTAVYYCNADAYGWYSGPWFKWLLWYDYWGQGTQVTVSS”, the entry is “low polyreactivity”; as for “QVQLAESGGGLVQAGGSLRLSCAASGRTFGRYVMGWYRQAPGKERELVAAITSSSSSTYADSVKGRFTISRDNAKNTVYLQMNSLKPEDTAVYYCNKRYTSRHRPEYDYWGQGTQVTVSS”, “high polyreactivity”. As to “QVQLAESGGGLVQAGGSLRLSCAASGSIFWGNAMGWYRQATGKERELVAAIDWSGGSTYYADSVKGRFTISRDNGKNTVYLQMNSLKAEDTAVYYCAASGRYDYDYWGQGTQVTVSS”, the “polyreactivity (PSR sort gate)” value is “low polyreactivity”.

For the sequence “QVQLAESGGGLVQAGGSLRLSCAASGSNFSPNAMGWYRQAPGKERELVAAITAGARTNYADSVKGRFTISRDNSKNTFYLQMNSLKPEDTAVYYCNAESYYDYNYWGQGTQVTVSS”, the “polyreactivity (PSR sort gate)” value is reported as “low polyreactivity”. Turning to “QVQLDESGRGLVQAGGSLRLSCAASGSTFGRYAMGRYREAPGKERELVAAISRGGGSTYYADSVKGRFTISRDNAKNTVYLQMNSLKPEDTAVYYCATDQNYPYSGGGDYWGQGTQVTVSS”, the “polyreactivity (PSR sort gate)” value is given as “low polyreactivity”. Regarding “QVQLEDSGGGLVQAGGSLPLSCAASGRTFGLNVMGWSRQATGTERELLASIRNIGGSTYYADSVKGRFTISCDNAKNTVYLQMNSLKPEDTAVFYCAAVTRSWVHYRYYYWGQGTQVTVSS”, the “polyreactivity (PSR sort gate)” value is listed as “high polyreactivity”. Take “QVQLEDSGGGLVQAGGSLRLSCAASGATFDGYTMAWYRQAPGKERELVAAISWRGTSTYYADSVKGRFTISRDNAKNTVYLQMNSLKPDDTAVYYCAADAYSGYDYWGQGTQVNVSS”: the “polyreactivity (PSR sort gate)” value is reported as “low polyreactivity”. For “QVQLEDSGGGLVQAGGSLRLSCAASGRIFGKYAMGWYRQAPGKERELVAAISYSGGRTYYADSVKGRFTISRDNAKNTVYLQMNSLTPEDTAVYYCAAVYHGINSYDYDYSGQGTQVTVSS”, the “polyreactivity (PSR sort gate)” value is recorded as “high polyreactivity”. In the case of “QVQLEDSGGGLVQAGGSLRLSCAASGRIFGTNAMGWYRQAPGKERELVATITRGGGNTYYADSVKGRFTISRDNAKNTVYLQMNSLKPEDTAVYYCAAKFNRFAWYSHYDYWGQGTQVTVSS”, the “polyreactivity (PSR sort gate)” value is reported as “low polyreactivity”. Turning to “QVQLEDSGGGLVQAGGSLRLSCAASVSTFSRNAMGWYRQAPGKEREFVAAISWSGSSTYYADSVKGRFTISRDNAKNTVFLQMNSLKPEDTAVYYCAARETWYPYYWMGYWGQGTQVTVSS”, the “polyreactivity (PSR sort gate)” value is “high polyreactivity”. As to “QVQLEDSGGGLVQAGGSLRLSSAASGIIFYPNAMGWYRQSPGKERELVAAITSDGSTYYADSVKGRFTISRDNAKNTVYLQMNSLKPEDTAVYYCDDWDDYGYDYWGQGTQVTVSS”, the “polyreactivity (PSR sort gate)” value is on record as “low polyreactivity”. Under “QVQLEDSGGGLVQAGGSLRLTSPASGSIFWYYDMGWYRQAPGKERELVAAITVIGSSTNYADSVKGRFTNSRDNAKITVYLQMNRLKPEDTAVYYCAAVRPPTPSRRREDYWGQGTQVTVSS” stands “low polyreactivity”; under “QVQLEDSRGGLVQAGGSLRLSCAASGLILASYAMGWNRQAQGKERQLVSAISRSGGSTYYEDSVKVRFTISRDNAKITVYLQMKSLKPEHTAVYYFAAKYPPKTPVNTYGNSFYYWGQGTQVTVSS”, “low polyreactivity”. Under “QVQLEEAGGGLVQAGGSLRLRCAASGRTFWYYAMGWYRQAPGKERELVAAITSGGSTNYADSVKGRFTISRDNEKNTVYLQMNSLKPEDTAVYYCAKLFRKRRSWDWYDYWGQGTQVTVSS” stands “high polyreactivity”; under “QVQLEESAGGLVQAGGSLRLSCAASGFTFRRYARGWYRQAPGKERELVAAISSRGGSTYYADSVKGRFTISRDNAKNTGYLQMKSLKPEDTAVYYCNRDAWGGTDLLGYNYWGHGTQVTVSS”, “high polyreactivity”; under “QVQLEESAGGLVQAGGSLRLSCAASGRIFKAYAMGWYRQAPGKERELVASISRDGSTSYADSVKGRFTISRDNEKNTVYLQMNSLKPEDTAVFYCAGPSYRTRYYFWGQGTQVNVSS”, “high polyreactivity”. As to “QVQLEESCGGLVQAGGSHRLICAASGPTIRYNGIGWYRQAPRKEREFLAAISWSGGSTYYADSVKGRFTISRDYAKNTVYLQMNSLKPEDTAVYYCNVDFHWQRFHHISADYDYWGLGTQVTVSS”, the “polyreactivity (PSR sort gate)” value is given as “high polyreactivity”.

For the sequence “QVQLEESGAGLVQAGGRHRLSCPASGFIFDWNAMGWYRQPPGKERELVAAISDDGDSTDYADSVKGRFTISRDNAKNTVYLQMNSLKPEDTAVYSCAANTERVYPCFSFGYWGQGTQVTVSS”, the “polyreactivity (PSR sort gate)” value is recorded as “low polyreactivity”. Consider “QVQLEESGAGLVQAGGSLRLSCAASVSIFRQYAMGWYRQAPGKERELFAAINYSGGKTYYADSVKGRFTISRDNAKNTVYLQLNSLKPEDTAVYYCAADSVRHYWWAYYYWGQVTQVTVSS”, for which the “polyreactivity (PSR sort gate)” value was “low polyreactivity”.

Consider “QVQLEESGGALVQAGGSLRLSCAASGRTFSGNAMGWYRQAPGKERELVAAISSGGSTNYADSVKGRFTISRDNAKNTVYLQMNSLKPEDTAVYYCAADEWRFPSYAYYYWGQGTQVTVSS”, for which the “polyreactivity (PSR sort gate)” value is “low polyreactivity”. Take “QVQLEESGGCLVQAGGSLRLSCAASGYIFTPYAKGWYRPAPGKEREFVAAITRSGGSTYYADSVKGRFTISRDYAKNTVYLQMNSLKPEDTAVYYCARYANYDKRYDYWGQGTQVTVSS”: the “polyreactivity (PSR sort gate)” value is reported as “high polyreactivity”. Under “QVQLEESGGGFVQAGGSLRLSCAASGSIFYYYVMGLYRQAAGKERELVAALTNSDRTYYADSVKGRFTISRDNAKNTVYLQMTSLKPEDTAVYYCAADYYWSPYYVYQFDYWGQGTQVTVSS” stands “low polyreactivity”.

As for “QVQLEESGGGIVQAGGSLRLRCAAAGRSVYYYAMAWYRQAPGKEREFVADITARGGSTYYADSVKGRFTISRDNAKNSVYLQMNSLKPEDTAVYYCAAYIYVTYYYWGQGTQVTVSS”, the “polyreactivity (PSR sort gate)” value is listed as “high polyreactivity”. On to “QVQLEESGGGIVQAGGSLRLSCAASGRTFKLNAMGLYRQAPGKERELVAAISRNGGSTYYADSVKGRFTISRDNAKNTVFLQMNSLKPEDTAVYYCAAVRHGVSLAGYYWGQGTQVTVSS”, for which the “polyreactivity (PSR sort gate)” value is “high polyreactivity”.

For “QVQLEESGGGIVQAGGSLRLSCAASGSIFGVYAMGMYRQAPGKERELVAVISRGGTYYADSVKGRFTISRDNAKNTVYLQMHSLKPEDTAVYYCAARTRKSTVFYGLDYWGQGTQVTVSS”, the “polyreactivity (PSR sort gate)” value is on record as “high polyreactivity”.

Take “QVQLEESGGGLDQAGGSLRLTCAASGSIFLWNAMGWSRQSPGKERQLVAAISSGTSTIYADSVKGRFTISRDNAKNTVYLQMNSLKREDTAVYYCAARGRKNQRRYGYWGLGTQVTVSS”: the “polyreactivity (PSR sort gate)” value is reported as “low polyreactivity”.

Take “QVQLEESGGGLFQAGGSLRLRCAASGSIFHINAMGWYRQAPGKERELVADISHRGGSTYYADSVKGRFTISRDNAKNTVYLQMNSLKPEDTAVYYCAVVHVFYAVYYFSFYTYDYWGQGTQVTVSS”: the “polyreactivity (PSR sort gate)” value was “low polyreactivity”. As to “QVQLEESGGGLGQAGGSLRLTCAASGSIFDTYTMGWYRQATRIEWELVAAITSGTTTTYADSVKGRFTISRDNGLNTVYLKINSLNPEDTAVYYCGARTSGSFDYWGQGPQVTVSS”, the “polyreactivity (PSR sort gate)” value was “low polyreactivity”. Consider “QVQLEESGGGLLKEGGSLRLSCAASGRLFYGYTIGRSRQAPGKERELVAAISRNGGSTYYADSVKGRFTISRDNAKNTVYFHMNSLKTEDSAVYYCNAVFSRGYVIKPYDYWGQGTQVTVSS”, for which the “polyreactivity (PSR sort gate)” value is “high polyreactivity”.

For the sequence “QVQLEESGGGLVHAGGSLRLSCAASGFIFKANAMGWYRQAPGKEREFVASISSSGGSTYYADSVKGRFTISRDNAKNTVYLHMNSLKPEDTAVYYCAAYTGYRHSRINLGYWGQGTQVTVSS”, the “polyreactivity (PSR sort gate)” value is on record as “high polyreactivity”. For “QVQLEESGGGLVHAGGSLRLSCAASGFTCDNYAMGWYRQAPGKERELVAAISNSGGRTYYADSVKGRFTISRDNAKNTVYLQMNSLKPEDTAVYYCTIFKDFDYWGQGTQVTVSS”, the “polyreactivity (PSR sort gate)” value is “high polyreactivity”.

In the case of “QVQLEESGGGLVKAGGSLRLTCAASGIIFVEYAMGWYRQAPGKERELVARIRYSGGSTYYADSVKGRFTISRDNAKNTVYLQMNSLQPEDTAVYYCNALLPYIYDYWGKGTQVTVSS”, the “polyreactivity (PSR sort gate)” value was “low polyreactivity”.

As for “QVQLEESGGGLVPAGGILRLSCAASGSIFSPNAIGWYRQAAGKEMELDASISSRGGSTYYADSVKGRFNISRDYAKNTVYLKMNSLKPEDTAVYYCAAAVQTRRGTRFDYWGQGTQVTVSS”, the “polyreactivity (PSR sort gate)” value is recorded as “low polyreactivity”.

For the sequence “QVQLEESGGGLVQAAGSLRLSSAASGSTFRYYAMGWYRQAPGKDRELVAAITRSRGSTYYADSVKGRFTISRDKAKNHVYLQMNSVKQEDTEVYYCAARGQTGYYSGVGYWGQGTQVTVSS”, the “polyreactivity (PSR sort gate)” value is listed as “high polyreactivity”. With “QVQLEESGGGLVQAGASLRLSCAASGRTFGSYAMGWYRQAPGKERELVAAISLSAGSTYYADSVKGRFTISRDNAKNTVYLQMNSLKPEDTAVYYCAAGTQWYSHVFIYYYWGQGTQVTVSS”, the “polyreactivity (PSR sort gate)” value is given as “low polyreactivity”. Consider “QVQLEESGGGLVQAGGCLRLSCAASGSIFEWYAMGWYRQAPGKERELVADISSVGSTYYADSVKGRFTISRDNAKNTVYLQMNSLKPEDTAVYYCNTSYIIWYDSWGQGTQVTVSS”, for which the “polyreactivity (PSR sort gate)” value is given as “low polyreactivity”. With “QVQLEESGGGLVQAGGRLRLRCAASATYRYYGMGWYRQQPGNERELVAAISRSGSRTYYADSVKGRFTISRDNAKNTVYLQMNSLKPEESAFYYCAASSVYYGYDYWGQGTQVTVSS”, the “polyreactivity (PSR sort gate)” value is “high polyreactivity”. Under “QVQLEESGGGLVQAGGRLRLSCAASGFTFGRYTMGWYRHAPGKERELVAAITWTGGRTYYADSVKGRFTISRDNAKNTVYLQMNSLKPEDTAVYYCAADTTIIIAQSEDDLWGQGTQVTVSS” stands “high polyreactivity”.
